According to patent US20230303685A1 (ELECTRA THERAPEUTICS, published 2023):

Key:
Human SIRPβ1/DAP12 CHO [1] = target: T1, Human SIRPβ1/DAP12 CHO; assay: flow cytometry, stably transfected CHO cells, antibody titrated, labelled anti-rat or anti-mouse IgG, MFI
T1 construct: also called human SIRPβ1 on CHO cells co-transfected with DAP12; copies: 1 + 2
Procedure: (§1) Selected antibodies were tested for binding to stably transfected human SIRPα, SIRPβ1 (co-transfected with DAP12), or SIRPγ Chinese hamster ovary (CHO) cells via flow cytometry. A titration of SIRP antibodies was added to the cells and detected using a fluorescently labelled secondary antibody. Graph depicts the median fluorescence intensity (MFI) at each concentration.

Human SIRPγ CHO [2] = target: T2, Human SIRPγ CHO; assay: as above
T2 construct: also called human SIRPγ on CHO cells
T2 chain: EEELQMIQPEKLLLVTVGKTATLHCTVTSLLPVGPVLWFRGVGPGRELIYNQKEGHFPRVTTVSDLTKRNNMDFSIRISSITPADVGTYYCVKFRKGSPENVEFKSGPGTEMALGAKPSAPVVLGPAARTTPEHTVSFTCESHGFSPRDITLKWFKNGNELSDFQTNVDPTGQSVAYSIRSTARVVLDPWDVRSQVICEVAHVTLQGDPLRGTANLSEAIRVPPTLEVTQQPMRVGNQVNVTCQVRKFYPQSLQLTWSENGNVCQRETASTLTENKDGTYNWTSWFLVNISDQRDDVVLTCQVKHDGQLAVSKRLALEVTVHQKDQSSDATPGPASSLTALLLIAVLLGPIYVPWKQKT
Procedure: as §1

human SIRPγ-His monomer = target: T3, human SIRPγ-His monomer (human); assay: BLI (Octet); antibody on anti-mouse IgG capture tip, SIRP-His monomer at 100, 33.3, 11.1 nM, 1:1 fit, mean KD
T3 construct: 'SIRP-His monomer protein' of the Octet assay; also called SIRP-His; not shown: His tag
Procedure: (§2) Select SIRP antibodies were tested for their affinities to human SIRPα, SIRPβ1, and SIRPγ using a biolayer interferometry (BLI) Octet system (Pall ForteBio). Each SIRP antibody with rat or mouse Fc was immobilized on a biosensor tip by an anti-mouse IgG capture (AMC). Antibodies with human Fc were digested with gingipain K enzyme to yield monomeric F(ab′), biotinylated, then coated onto streptavidin biosensors. […] The biosensors were then exposed to wash buffer to measure off-rate kinetics. The resulting kinetic data were analyzed and fitted using a 1:1 binding model with kₒₙ and kdis fitted separately at each SIRP-His protein concentration. KD affinities were calculated as kdis to kₒₙ ratio at each concentration of SIRP-His and averaged.

[3] = target: T4, human SIRPα V1-His monomer (human, UniProt P78324 31-373, limits assumed); assay: as above
T4 construct: 'SIRP-His monomer protein' of the Octet assay; also called SIRP-His; not shown: His tag
Procedure: as §2

[4] = target: T5, human SIRPα V1 extracellular domain, monomeric (human, UniProt P78324 31-373); assay: ELISA, extracellular domain coated at 1 µg/mL, purified antibody titrated, anti-rat IgG, chemiluminescence
T5 construct: also called hSIRPα V1
Procedure: (§3) Select SIRP antibodies were purified by Protein G from hybridoma supernatants and analyzed in a titration via ELISA. Briefly, 1 μg/mL of extracellular domain SIRPα was coated onto high protein-binding plates and blocked. Purified antibodies were added in a titration to the coated plates. The antibodies were detected by an anti-rat IgG antibody and a chemiluminescent substrate.

Human SIRPβ1 [5] = target: T6, Human SIRPβ1; assay: ELISA, extracellular domain coated at 2 µg/mL, undiluted hybridoma supernatant, anti-rat or anti-mouse IgG, chemiluminescence
T6 construct: also called human SIRPβ1 extracellular domain, plate-coated
T6 chain: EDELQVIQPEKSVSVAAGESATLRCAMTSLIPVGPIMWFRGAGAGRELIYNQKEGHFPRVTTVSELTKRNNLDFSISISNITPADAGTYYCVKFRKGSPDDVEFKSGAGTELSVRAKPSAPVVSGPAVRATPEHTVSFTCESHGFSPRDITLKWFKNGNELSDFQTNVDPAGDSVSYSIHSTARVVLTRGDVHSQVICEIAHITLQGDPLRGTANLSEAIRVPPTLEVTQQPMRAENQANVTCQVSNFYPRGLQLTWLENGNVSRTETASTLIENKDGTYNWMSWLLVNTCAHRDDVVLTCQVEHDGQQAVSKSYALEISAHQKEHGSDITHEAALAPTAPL
Procedure: Briefly, 2 μg/mL of the extracellular domain of each of the SIRPs was coated onto high protein-binding plates and blocked. Supernatants were added undiluted to coated plates. The antibodies were detected by anti-rat or anti-mouse IgG antibodies and a chemiluminescent substrate. […] The data depict the relative luminescence units read by a plate-reader capable of detecting chemiluminescence.

Cynomolgus Monkey SIRPγ [6] = target: T7, Cynomolgus Monkey SIRPγ (Macaca fascicularis); assay: ELISA, extracellular domain coated at 2 µg/mL, purified antibody titrated, anti-rat or anti-mouse IgG, chemiluminescence
T7 construct: extracellular domain; also called cyno SIRPγ extracellular domain, plate-coated
Procedure: as §3, with “2” for “1”, “of each of the SIRPs” for “SIRPα”, “IgG or an anti-mouse IgG” for “IgG”

[7] = target: T5, human SIRPα V1 extracellular domain, …; assay: as above
Procedure: as §3, with “2” for “1”, “of each of the SIRPs” for “SIRPα”, “IgG or an anti-mouse IgG” for “IgG”

Human SIRPγ [8] = target: T8, Human SIRPγ; assay: as above
T8 construct: also called human SIRPγ extracellular domain, plate-coated
T8 chain: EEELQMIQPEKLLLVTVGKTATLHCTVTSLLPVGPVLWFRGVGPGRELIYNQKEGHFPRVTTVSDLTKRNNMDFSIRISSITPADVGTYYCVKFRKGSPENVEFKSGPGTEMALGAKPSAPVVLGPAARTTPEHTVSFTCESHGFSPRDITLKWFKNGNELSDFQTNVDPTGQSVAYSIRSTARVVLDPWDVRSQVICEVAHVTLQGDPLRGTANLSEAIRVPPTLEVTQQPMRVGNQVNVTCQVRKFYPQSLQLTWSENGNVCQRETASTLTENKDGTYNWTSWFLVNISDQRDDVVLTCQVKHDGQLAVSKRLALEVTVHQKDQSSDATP
Procedure: as §3, with “2” for “1”, “of each of the SIRPs” for “SIRPα”, “IgG or an anti-mouse IgG” for “IgG”

[9] = target: T9, Human SIRPγ conjugated to an Fc region (human); assay: BLI blocking; 200 nM antibody pre-incubated with 20 nM SIRPγ-Fc, binding to immobilised CD47-His (competitor), % of response of SIRPγ-Fc alone
T9 construct: also called SIRPγ-Fc; SIRP-Fc; not shown: Fc region

Human SIRPγ [10] = target: T8, Human SIRPγ; assay: ELISA, extracellular domain coated at 1 µg/mL, purified antibody titrated, anti-human IgG, chemiluminescence
Procedure: as §3
FIGS. 3A-3C show binding curves of SIRP antibodies and two isotype controls with human Fc to human SIRPα V1, human SIRPβ1, human SIRPγ and cynomolgus monkey SIRPα by ELISA. […] Isotype control 1 was an unrelated human IgG1 antibody with irrelevant CDRs. Isotype control 2 was the same as isotype control 1 but contained the same amino acid substitutions in the Fc region as some of the selected SIRP antibodies for increased FcγR binding (referring to Table 11). DNA was transiently transfected into CHO cells for 7 days. Antibodies were purified by Protein A from cell supernatants and analyzed in a titration via ELISA as previously described in FIGS. 2A-2B using an anti-human IgG antibody as the detection antibody.

[11] = target: T10, cynomolgus monkey SIRPα extracellular domain, monomeric (cynomolgus monkey, UniProt A0A2K5VYQ9 31-372); assay: ELISA, extracellular domain coated at 2 µg/mL, purified antibody titrated, anti-human IgG, chemiluminescence
T10 construct: extracellular domain; also called Cyno SIRPα

Human SIRPβ1 [12] = target: T6, Human SIRPβ1; assay: as above
Cynomolgus Monkey SIRPβ1 = target: T11, Cynomolgus Monkey SIRPβ1 (Macaca fascicularis); assay: as above
T11 construct: extracellular domain; also called cyno SIRPβ1 extracellular domain, plate-coated

Human SIRPγ [13] = target: T8, Human SIRPγ; assay: as above
[14] = target: T5, human SIRPα V1 extracellular domain, …; assay: SPR (Biacore); antibody captured by anti-IgG on chip, monomeric SIRPα extracellular domain as analyte, 1:1 model
Procedure: (§4) Selected antibodies were tested for their affinities to two hSIRPα variants (V1 and V2), and to cynomolgus monkey (herein referred to as “cyno”) SIRPα. The affinities of these SIRP antibodies were determined using surface plasmon resonance. The SIRP antibodies were flowed onto a chip and captured by an anti-mouse IgG or an anti-human IgG covalently coupled to the surface of the chip. A three-point titration of the extracellular binding domain of hSIRPα was performed per the manufacturer's recommended protocols.

[15] = target: T12, human SIRPα V2 extracellular domain, monomeric (human, UniProt P78324 31-370); assay: as above
T12 construct: also called hSIRPα V2
Procedure: as §4

[16] = target: T10, cynomolgus monkey SIRPα extracellular …; assay: as above
Procedure: as §4

Human SIRPβ1/DAP12 CHO [17] = target: T1, Human SIRPβ1/DAP12 CHO; assay: flow cytometry, stably transfected CHO cells, antibody titrated, labelled anti-human IgG, MFI
Procedure: as §1

Human SIRPγ CHO [18] = target: T2, Human SIRPγ CHO; assay: as above
Procedure: as §1

[19] = target: T5, human SIRPα V1 extracellular domain, …; assay: ELISA, extracellular domain coated at 2 µg/mL, purified antibody titrated, anti-human IgG, chemiluminescence
Cynomolgus Monkey SIRPγ [20] = target: T7, Cynomolgus Monkey SIRPγ; assay: as above

T1 sequence (DAP12, as listed by the source limits assumed): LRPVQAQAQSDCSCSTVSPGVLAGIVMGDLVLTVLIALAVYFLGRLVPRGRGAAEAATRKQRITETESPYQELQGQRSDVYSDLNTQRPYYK

B1: Antibody 4 (antibody, V domains shown)
VH: QVQLQESGPGLLKPSETLSLTCAVSDYSISSGYYWGWIRQPPGKGLEWIGSIYHSGNTYYNPSLKSRVTILVDTSKNQFSLKLSSVTAADTAVYYCARDKCSTTTCSFDYWGQGTLVTVSS
VL: DIQMTQSPSSLSASVGDRVTITCQASQDFSNYLNWYQQKPGKAPKLLIYAASNLETGVPSRFSGSGSGTDFTFTISSLQPEDIAVYYCQQYDNLPYTFGQGTKLEIK
notes: Human variable region, rat IgG2b Fc; from hybridoma
binding result (Human SIRPβ1/DAP12 CHO [1]): binds | EC50 (read off the curve) (Human SIRPγ CHO [2]): ~0.1 µg/mL | Kd (human SIRPγ-His monomer): 24.1 nM | Kd [3]: 46.1 nM | EC50 (read off the curve) [4]: ~0.05 µg/mL | binding result (Human SIRPβ1 [5]): binds | EC50 (read off the curve) (Cynomolgus Monkey SIRPγ [6]): ~0.07 µg/mL | EC50 (read off the curve) [7]: ~0.06 µg/mL | EC50 (read off the curve) (Human SIRPγ [8]): ~0.05 µg/mL | SIRPγ-CD47 Response (%) [9]: -6.94%

B2: Antibody 28 (antibody, V domains shown)
VH: QVQLQESGPGLVKPSGTLSLTCAVSGGSISSSNWWSWVRQPPGKGLEWIGEIYHSGSTNYNPSLKSRVTISVDKSKNQFSLKLSSVTAADTAVYYCARRGIWFGVGPWGQGTLVTVSS
VL: DIVMTQSPLSLPVTPGEPASISCRSSQSLLHGNGFNYLDWYLQKPGQSPQLLIYLGSNRASGVPDRFTGSGSGTDFTLKISRVEAEDVGVYYCMQGLQTPRTFGQGTKVEIK
EC50 (read off the curve) (Human SIRPγ [10]): ~0.04 µg/mL | EC50 (read off the curve) [11]: ~0.04 µg/mL | EC50 (read off the curve) (Human SIRPβ1 [12]): ~0.04 µg/mL | EC50 (read off the curve) (Cynomolgus Monkey SIRPβ1): ~0.04 µg/mL | EC50 (read off the curve) (Human SIRPγ [13]): ~0.03 µg/mL | Kd [14]: 311 nM | Kd [15]: 373 nM | Kd [16]: 361 nM | SIRPγ-CD47 Response (%) [9]: 144% | EC50 (read off the curve) (Human SIRPβ1/DAP12 CHO [17]): ~0.4 µg/mL | EC50 (read off the curve) (Human SIRPγ CHO [18]): ~0.3 µg/mL

B3: Antibody 32 (antibody, V domains shown)
VH: QVQLQESGPGLVKPSGTLSLTCAVSGGSISSSNWWSWVRQPPGKGLEWIGEIYHSGNTNYNPSLKSRVTISVDKSKNQFSLKLSSVTAADTAVYYCAREGIEGYYFYYGMDVWGQGTTVTVSS
VL: DIQLTQSPSFLSASVGDRVTITCRASQGISGYLDWYQQKPGKAPKLLIYAASTLQRGVPSRFSGSGSGTDFNLTISSLQPEDFATYYCQQFTSDLITFGQGTRLEIK
notes: same variable regions as Antibodies 3 and 24
EC50 (read off the curve) [19]: ~0.03 µg/mL | EC50 (read off the curve) (Human SIRPβ1 [12]): ~0.03 µg/mL | EC50 (read off the curve) (Cynomolgus Monkey SIRPγ [20]): ~0.03 µg/mL | EC50 (read off the curve) (Human SIRPγ [13]): ~0.02 µg/mL | EC50 (read off the curve) (Human SIRPβ1/DAP12 CHO [17]): ~0.3 µg/mL | EC50 (read off the curve) (Human SIRPγ CHO [18]): ~0.2 µg/mL
